Target: T1, Recombinant tau containing three tubulin binding repeats (3R) (Homo sapiens, UniProt P10636-5 1-410, limits assumed)
T1 construct: also called Tau protein 3R; 3R-tau
Assay: dot blot: peptide on nitrocellulose, incubated with 3R tau, detected with tau5 antibody
Description: The membrane was further incubated with 2 μM tau-three microtubule binding domain repeats (1.5 hr, room temperature). The non-specific sites were blocked by soaking in a blocking solution (10 mM Tris, 6 mM NaCl, 0.05% Tween 20) that was supplemented with 5% low-fat milk (1 hr at room temperature). The membrane was incubated with primary antibody (tau5 antibody 1:1000), dissolved in 5% milk in blocking solution (12 hours at 4 C). The membrane was then washed three times with the blocking solution (3×10 min), incubated with secondary antibody conjugated with horseradish peroxidase (HRP) (1 hr at room temperature) and washed again three times with blocking solution (10 min×3). The membrane was incubated with ECL reagent (Western blotting detection system; Amersham Biosciences) for 1 min, covered and exposed Biomax Light Film (Kodak, Rochester, N.Y., USA).

T1 sequence (P10636 other isoform, or with tags, fused parts or gaps limits assumed): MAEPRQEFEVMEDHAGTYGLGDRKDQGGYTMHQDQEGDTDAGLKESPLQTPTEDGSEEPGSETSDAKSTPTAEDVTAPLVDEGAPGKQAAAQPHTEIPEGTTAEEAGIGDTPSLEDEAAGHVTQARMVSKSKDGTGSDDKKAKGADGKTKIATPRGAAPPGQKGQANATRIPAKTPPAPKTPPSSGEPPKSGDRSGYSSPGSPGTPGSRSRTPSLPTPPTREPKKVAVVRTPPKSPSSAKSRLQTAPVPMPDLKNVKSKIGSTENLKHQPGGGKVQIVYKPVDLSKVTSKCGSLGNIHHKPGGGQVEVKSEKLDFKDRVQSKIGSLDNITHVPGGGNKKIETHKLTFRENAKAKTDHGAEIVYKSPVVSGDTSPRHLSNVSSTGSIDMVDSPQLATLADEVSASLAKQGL

binding result: no binding
B1: vasoactive intestinal peptide VIP (peptide, UniProt P01282 125-152, looked up)
peptide: HSDAVFTDNYTRLRKQMAVKKYLNSILN
notes: Negative control peptide in the dot blot; the assay used the peptide itself; also called VIP peptide; control peptide
